Assay results taken from publication PMC8956199, “The mismatched nucleotides encoded in vaccinia virus flip-and-flop hairpin telomeres serve an essential role in virion maturation”.

B1: S hairpin (VACV WR telomere, wild type) (structured_DNA)
DNA: ACATTTTTTTCTAGACACTAAATAAAATATTTAAAATATAATATTAATGTACTAAAACTTATATATTATTAATTTATCTAACTAAAGTTAGTAAATTATATATATAATTTTATAATTAATTTAATTTTACTAATTTTATTTAGTGTCTAGAAAAAAA
modifications: 5' phosphate
B2: SΔ1–3 hairpin (structured_DNA)
DNA: ACATTTTTTTCTAGACACTAAATAAAATATTTAAAATATAATATTAATGTACTAAAATTATATATTAATTTACTAACTAAAGTTAGTAAATTAATATATAATTTTATAATTAATTTAATTTTACTAATTTTATTTAGTGTCTAGAAAAAAA
modifications: 5' phosphate

Experiments:
[1] = biological target: T1, I1 telomere-binding protein (UniProt P16714 1-312); experiment: EMSA, competition; 700 ng poly d(IC), 0-300 ng unlabeled S hairpin; reference; settings: protein: recombinant; tags: His6 (pET151/D-TOPO vector); label: 3' fill-in with Alexa Fluor 647-aha-dUTP (Results say Cy5-dUTP)
T1 sequence: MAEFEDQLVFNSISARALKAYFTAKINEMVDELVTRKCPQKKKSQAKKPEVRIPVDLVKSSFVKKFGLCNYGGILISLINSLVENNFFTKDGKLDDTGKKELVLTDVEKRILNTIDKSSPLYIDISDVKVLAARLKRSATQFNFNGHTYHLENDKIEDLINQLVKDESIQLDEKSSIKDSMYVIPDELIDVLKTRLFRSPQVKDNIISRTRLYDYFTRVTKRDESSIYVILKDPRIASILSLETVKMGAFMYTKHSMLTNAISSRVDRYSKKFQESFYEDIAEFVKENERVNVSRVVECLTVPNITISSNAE

[2] = biological target: T1, I1 telomere-binding protein; experiment: EMSA, competition; 700 ng poly d(IC), 0-300 ng unlabeled S hairpin; behaved much like S; settings: protein: recombinant; tags: His6 (pET151/D-TOPO vector); label: 3' fill-in with Alexa Fluor 647-aha-dUTP (Results say Cy5-dUTP)

Binder	binding result [1]	binding result [2]
B1	binds	
B2		binds
